From the supplement of paper PMC7877785
± gives the uncertainty stated by the source.

Assay: self-splicing fitness, log relative to wild type (ln ratio); higher = more splicing; Tetrahymena group I intron in knt gene, E. coli kanamycin selection, DiMSum; sequences stand for … in CUCUCU…GGAGGGAAAAGUUAUCAGGCAUGCACCUGGUAGCUAGUCUUUAAACCAAUAGAUUGCAUCGGUUUAAAAGGCAAGACCGUCAAAUUGCGGGAAAGGGGUCAACAGCCGUUCAGUACCAAGUCUCAGGGGAAACUUUGAGAUGGCCUUGCAAAGGGUAUGGUAAUAAGCUGACGGACAUGGUCCUAACCACGCAGCCAAGUCCUAAGUCAACAGAUCUUCUGUUGAUAUGGAUGCAGUUCACAGACUAAAUGUCGGUCGGGGAAGAUGUAUUCUUCUCAUAAGAUAUAGUCGGACCUCUCCUUAAUGGGAGCUAGCGGAUGAAGUGAUGCAACACUGGAGCCGCUGGGAACUAAUUUGUAUGCGAAAGUAUAUUGAUUAGUUUUGGAGUACUCGUGGUCG
Method in brief: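 The eight P1ex-region nucleotides of an intron in the knt kanamycin-resistance gene on pET-22b(+) were all randomised and the library put into E. coli BL21(DE3). Six replicate transformations were grown overnight at 37°C or 30°C on LB agar with or without 25 μg/mL kanamycin, together with 100 μg/mL carbenicillin, 50 μM IPTG and 0.2% rhamnose. Colonies were pooled and amplicon-sequenced on an Illumina HiSeq 2500. Fitness from DiMSum is the error-weighted combination of wild-type-normalised replicate fold changes, kanamycin over none.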

Row | Sequence | self-splicing fitness (ln) (30 °C) | self-splicing fitness (ln) (37 °C)
1 | GACGAGCAAUAUUACGAGUU | -3.06 ± 0.34 | 
2 | GACGAGCAAUAUUACGAUUC | -1.39 ± 0.11 | -1.47 ± 0.17
3 | GACGAGCAAUAUUACGCAAU |  | -2.74 ± 0.31
4 | GACGAGCAAUAUUACGCAGG | -2.39 ± 0.2 | -1.6 ± 0.26
5 | GACGAGCAAUAUUACGCAGU | -3.48 ± 0.28 | -2.21 ± 0.23
6 | GACGAGCAAUAUUACGCCAG |  | -2.63 ± 0.28
7 | GACGAGCAAUAUUACGCCUC | -3.23 ± 0.37 | -1.86 ± 0.38
8 | GACGAGCAAUAUUACGCGGG | -3.48 ± 0.47 | -2.61 ± 0.36
9 | GACGAGCAAUAUUACGCUCA | -1.28 ± 0.15 | -0.493 ± 0.13
10 | GACGAGCAAUAUUACGGAAG | -2.39 ± 0.23 | -2.5 ± 0.31
11 | GACGAGCAAUAUUACGGACC | -1.34 ± 0.34 | -0.304 ± 0.33
12 | GACGAGCAAUAUUACGGCGA | -2.12 ± 0.13 | -1.65 ± 0.13
13 | GACGAGCAAUAUUACGGGCC | -2.12 ± 0.14 | -1.63 ± 0.21
14 | GACGAGCAAUAUUACGGGGG | -3.65 ± 0.22 | -2.98 ± 0.3
15 | GACGAGCAAUAUUACGGGGU |  | -2.59 ± 0.25
16 | GACGAGCAAUAUUACGGUAU | -3.43 ± 0.19 | -2.08 ± 0.26
17 | GACGAGCAAUAUUACGUAAA | -2.58 ± 0.18 | 
18 | GACGAGCAAUAUUACGUACC | -3.61 ± 0.28 | -1.75 ± 0.21
19 | GACGAGCAAUAUUACGUAGC | -4.54 ± 0.41 | -2.33 ± 0.25
20 | GACGAGCAAUAUUACGUAUA | -3.23 ± 0.29 | -0.524 ± 0.2
21 | GACGAGCAAUAUUACGUCCU | -3.24 ± 0.25 | -1.81 ± 0.25
22 | GACGAGCAAUAUUACGUCGG |  | -1.96 ± 0.34
23 | GACGAGCAAUAUUACGUGCU | -2.92 ± 0.19 | -2.4 ± 0.23
24 | GACGAGCAAUAUUACGUUCC | -3.47 ± 0.23 | -2.65 ± 0.36
25 | GACGAGCAAUAUUACGUUCU | -4.53 ± 0.37 | -2.52 ± 0.24
26 | GACUAGCAAUAUUACGAAGG | -2.64 ± 0.17 | -1.87 ± 0.18

Row | Sequence | self-splicing fitness (ln) (30 °C) | self-splicing fitness (ln) (37 °C)
27 | GACUAGCAAUAUUACGAGGG | -3.34 ± 0.18 | -2.65 ± 0.2
28 | GACUAGCAAUAUUACGAUUU | 0.261 ± 0.061 | 0.116 ± 0.077
29 | GACUAGCAAUAUUACGCAAA | -1.49 ± 0.15 | -1.88 ± 0.23
30 | GACUAGCAAUAUUACGCCGG |  | -1.67 ± 0.36
31 | GACUAGCAAUAUUACGCCUU | -0.605 ± 0.067 | 0.734 ± 0.092
32 | GACUAGCAAUAUUACGCGGA | -1.55 ± 0.13 | -0.984 ± 0.11
33 | GACUAGCAAUAUUACGCGGC | -3.16 ± 0.38 | 
34 | GACUAGCAAUAUUACGGAAG | -3.56 ± 0.19 | -2.21 ± 0.19
35 | GACUAGCAAUAUUACGGCUC | 0.193 ± 0.1 | 0.351 ± 0.12
36 | GACUAGCAAUAUUACGGGAA | -2.32 ± 0.19 | -0.809 ± 0.16
37 | GACUAGCAAUAUUACGGGGC | -4.11 ± 0.23 | -1.21 ± 0.13
38 | GACUAGCAAUAUUACGGGGG | -3.39 ± 0.27 | -1.46 ± 0.25
39 | GACUAGCAAUAUUACGGGUG | -1.25 ± 0.078 | -0.949 ± 0.07
40 | GACUAGCAAUAUUACGGUAG | -0.551 ± 0.12 | -0.15 ± 0.14
41 | GACUAGCAAUAUUACGUCAG | -2.88 ± 0.21 | -3.7 ± 0.37
42 | GAGAAGCAAUAUUACGACUA | -0.502 ± 0.061 | 0.183 ± 0.082
43 | GAGAAGCAAUAUUACGAGCC | -1.03 ± 0.097 | -0.808 ± 0.15
44 | GAGAAGCAAUAUUACGAGUG | -2.91 ± 0.14 | -1.01 ± 0.11
45 | GAGAAGCAAUAUUACGCACU | -1.73 ± 0.14 | -0.249 ± 0.16
46 | GAGAAGCAAUAUUACGCAUA | -1.72 ± 0.13 | -1.01 ± 0.14
47 | GAGAAGCAAUAUUACGCCCG | -2.15 ± 0.19 | 0.00226 ± 0.24
48 | GAGAAGCAAUAUUACGCGUG | -0.423 ± 0.062 | -0.803 ± 0.09
49 | GAGAAGCAAUAUUACGCUAA | -2.47 ± 0.3 | -0.911 ± 0.24
50 | GAGAAGCAAUAUUACGGAAA | -2.35 ± 0.45 | -1.92 ± 0.35
51 | GAGAAGCAAUAUUACGGACA | -0.633 ± 0.11 | -1.02 ± 0.14
52 | GAGAAGCAAUAUUACGGACC | -0.43 ± 0.18 | 0.267 ± 0.19

Row | Sequence | self-splicing fitness (ln) (30 °C) | self-splicing fitness (ln) (37 °C)
53 | GAGAAGCAAUAUUACGGCAC | -1.28 ± 0.083 | -0.111 ± 0.15
54 | GAGAAGCAAUAUUACGGCAG | -3.08 ± 0.41 | -1.85 ± 0.3
55 | GAGAAGCAAUAUUACGGGAC | -2.56 ± 0.13 | -1.37 ± 0.12
56 | GAGAAGCAAUAUUACGGGAU | -3.32 ± 0.16 | -2.58 ± 0.2
57 | GAGAAGCAAUAUUACGGGUC | -3.08 ± 0.15 | -2.24 ± 0.16
58 | GAGAAGCAAUAUUACGGUCU | -2.29 ± 0.13 | -1.16 ± 0.17
59 | GAGAAGCAAUAUUACGUAGA | -2 ± 0.14 | -0.626 ± 0.14
60 | GAGAAGCAAUAUUACGUAUA | -2.51 ± 0.14 | -1.71 ± 0.14
61 | GAGAAGCAAUAUUACGUCCA | -0.235 ± 0.12 | 0.335 ± 0.14
62 | GAGAAGCAAUAUUACGUCUU | -2.33 ± 0.23 | -2.92 ± 0.36
63 | GAGAAGCAAUAUUACGUGGU | -3.27 ± 0.17 | -2.32 ± 0.21
64 | GAGCAGCAAUAUUACGAAUA | -2.87 ± 0.37 | -1.8 ± 0.24
65 | GAGCAGCAAUAUUACGAAUC | -2.08 ± 0.07 | -1.22 ± 0.083
66 | GAGCAGCAAUAUUACGAGAA | -2.25 ± 0.31 | -2.61 ± 0.36
67 | GAGCAGCAAUAUUACGAGCA | -0.982 ± 0.11 | -0.888 ± 0.13
68 | GAGCAGCAAUAUUACGAGUU | -2.48 ± 0.13 | -1.1 ± 0.13
69 | GAGCAGCAAUAUUACGAUCU | -1.71 ± 0.15 | -0.141 ± 0.12
70 | GAGCAGCAAUAUUACGAUGG | -3.68 ± 0.25 | -2.61 ± 0.31
71 | GAGCAGCAAUAUUACGCAAA | -1.4 ± 0.2 | -0.683 ± 0.14
72 | GAGCAGCAAUAUUACGCAAG | -1.36 ± 0.16 | -0.218 ± 0.3
73 | GAGCAGCAAUAUUACGCAAU | -1.89 ± 0.12 | -1.53 ± 0.2
74 | GAGCAGCAAUAUUACGCCAG | -2.49 ± 0.42 | -2.85 ± 0.34
75 | GAGCAGCAAUAUUACGCCUA | -0.758 ± 0.064 | 0.0984 ± 0.085
76 | GAGCAGCAAUAUUACGCCUU | -3.8 ± 0.32 | -1.32 ± 0.19
77 | GAGCAGCAAUAUUACGCGAA | -3.01 ± 0.25 | -1.27 ± 0.15
